Measurements published in patent US11167048B2, “Dual targeting ligand for cancer diagnosis and treatment” (priority 2018, dated 2021).

Columns and labels:
[1] = in vivo; design: species or system CF-1 normal mice; conditions: CF-1, mouse, iv, total radioactivity
[2] = in vivo; design: species or system ICR-SCID male mice; conditions: male, ICR-SCID, mouse, iv, total radioactivity, Brain uptake
[3] = in vivo; design: species or system ICR-SCID male mice; conditions: male, ICR-SCID, mouse, iv, total radioactivity, Pancreas uptake
[4] = molecular target: T1, PSMA (Homo sapiens, UniProt Q04609); experiment: NAALADase assay with LNCaP homogenized cell membranes and [N-acetyl aspartyl ^3H-glutamate]; type: binding; conditions: LNCaP homogenized cell membranes, read-out: IC50 LNCaP cells
T1 construct: endogenous in cells; host or cells: LNCaP human prostate cancer cells, homogenized cell membranes
Description: (§1) (NAAG) as the radioligands. […] After incubation, the reaction medium was aspirated and the cells were rinsed three times with cold media. Cell-associated radioactivity was determined using a Packard Riastar gamma counter. […] The enzymatic reaction was stopped by addition of 50 μL of cold sodium phosphate buffer (0.1 M, pH=7.4). […] Scintillation cocktail was added to each fraction and the amount of radioactivity in each was determined by liquid scintillation counting.
(§2) (NAAG) as the radioligands. […] After incubation, the reaction medium was aspirated and the cells were rinsed three times with cold media. Cell-associated radioactivity was determined using a Packard Riastar gamma counter. […] For the PSMA-positive assay, the binding affinity was measured using the N-acetylated-α-linked acidic dipeptidase (NAALADase) assay. […] The enzymatic reaction was stopped by addition of 50 μL of cold sodium phosphate buffer (0.1 M, pH=7.4). […] Columns were pre-equilibrated with 0.2 M HCl prior to loading of the reaction mixture. […] Scintillation cocktail was added to each fraction and the amount of radioactivity in each was determined by liquid scintillation counting.

[5] = test system: metastatic disease; conditions: ^68Ga-labeled agent; cited from earlier work
[6] = molecular target: T2, GRPR (Homo sapiens, UniProt P30550); experiment: Competitive displacement binding assay in GRPR-positive PC-3 cells with [^125I-(Tyr4)-BBN]; conditions: radioligand [^125I-(Tyr4)-BBN], 1 h, 37° C., read-out: IC50 PC3 cells
T2 construct: endogenous in cells; host or cells: PC-3 human prostate cancer cells (intact cells)
Description: as §1, §2

[7] = test system: prostate tumors; conditions: newly diagnosed PCa patients; cited from earlier work

T1 sequence (Q04609 whole entry): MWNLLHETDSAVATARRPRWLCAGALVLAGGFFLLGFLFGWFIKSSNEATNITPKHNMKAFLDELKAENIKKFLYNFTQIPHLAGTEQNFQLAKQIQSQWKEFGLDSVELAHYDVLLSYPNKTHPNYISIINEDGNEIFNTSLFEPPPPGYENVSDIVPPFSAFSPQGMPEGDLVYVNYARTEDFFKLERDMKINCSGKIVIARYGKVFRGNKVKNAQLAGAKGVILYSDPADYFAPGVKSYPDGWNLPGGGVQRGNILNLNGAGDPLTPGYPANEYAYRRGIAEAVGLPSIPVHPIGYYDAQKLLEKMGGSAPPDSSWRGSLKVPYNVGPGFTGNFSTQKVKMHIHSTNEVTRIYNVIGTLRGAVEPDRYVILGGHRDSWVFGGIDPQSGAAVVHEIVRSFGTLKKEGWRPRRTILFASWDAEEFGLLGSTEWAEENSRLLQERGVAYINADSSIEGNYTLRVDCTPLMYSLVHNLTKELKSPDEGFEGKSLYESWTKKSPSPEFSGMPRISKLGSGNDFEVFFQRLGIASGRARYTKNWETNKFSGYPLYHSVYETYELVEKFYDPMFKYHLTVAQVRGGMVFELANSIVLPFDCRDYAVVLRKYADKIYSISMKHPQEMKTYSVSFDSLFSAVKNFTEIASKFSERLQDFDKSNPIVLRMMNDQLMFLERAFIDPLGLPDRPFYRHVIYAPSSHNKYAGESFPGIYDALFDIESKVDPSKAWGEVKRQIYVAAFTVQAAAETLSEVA
T2 sequence (P30550 whole entry): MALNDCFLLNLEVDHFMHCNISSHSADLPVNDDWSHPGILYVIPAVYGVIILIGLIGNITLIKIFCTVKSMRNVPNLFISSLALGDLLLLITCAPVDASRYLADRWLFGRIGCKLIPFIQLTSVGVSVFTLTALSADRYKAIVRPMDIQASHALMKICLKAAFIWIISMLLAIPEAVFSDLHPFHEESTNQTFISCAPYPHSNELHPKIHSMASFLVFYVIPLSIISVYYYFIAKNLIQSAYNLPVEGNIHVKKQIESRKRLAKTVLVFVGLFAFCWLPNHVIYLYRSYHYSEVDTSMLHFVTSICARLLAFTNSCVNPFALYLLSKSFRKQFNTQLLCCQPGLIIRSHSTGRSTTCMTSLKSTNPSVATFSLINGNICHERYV

| IC50 [4] [nM] | Compound | tissue uptake at 1 h ([1]; Bone uptake) [%ID/g] | tissue uptake at 1 h ([1]; Brain uptake) [%ID/g] | tissue uptake at 1 h ([1]; Heart uptake) [%ID/g] | tissue uptake at 1 h ([1]; Kidneys uptake) [%ID/g] | tissue uptake at 1 h ([1]; L. Intestine uptake) [%ID/g] | tissue uptake at 1 h ([1]; Liver uptake) [%ID/g] | tissue uptake at 1 h ([1]; Lung uptake) [%ID/g] | tissue uptake at 1 h ([1]; Muscle uptake) [%ID/g] | tissue uptake at 1 h ([1]; Pancreas uptake) [%ID/g] | tissue uptake at 1 h ([1]; S. Intestine uptake) [%ID/g] | tissue uptake at 1 h ([1]; Spleen uptake) [%ID/g] | tissue uptake at 1 h ([1]; Stomach uptake) [%ID/g] | further results |
| --- | --- | --- | --- | --- | --- | --- | --- | --- | --- | --- | --- | --- | --- | --- |
| – | CC(C)C[C@H](NC(=O)C[C@H](O)[C@H](CC(C)C)NC(=O)[C@H](Cc1c[nH]cn1)NC(=O)CNC(=O)[C@@H](NC(=O)[C@H](C)NC(=O)[C@H](Cc1c[nH]c2ccccc12)NC(=O)[C@H](CCC(N)=O)NC(=O)[C@@H](Cc1ccccc1)NC(=O)CCCCNC(=O)[C@H](CCCCNC(=O)CN1CCN(CC(=O)O)CCN(CC(=O)O)CCN(CC(=O)O)CC1)NC(=O)CCCCCNC(=O)CC[C@H](NC(=O)N[C@@H](CCC(=O)O)C(=O)O)C(=O)O)C(C)C)C(N)=O [DUPA-6-Ahx-Lys(^111In-DOTA)-5-Ava-RM2, metal not drawn] | 0.09 ± 0.06 | 0.02 ± 0.01 | 0.11 ± 0.06 | 4.92 ± 0.84 | 0.12 ± 0.05 | 0.15 ± 0.05 | 0.68 ± 0.25 | 0.06 ± 0.04 | 1.02 ± 0.37 | 0.26 ± 0.09 | 0.13 ± 0.05 | 0.23 ± 0.18 | – |
| – | CC(C)C[C@H](NC(=O)C[C@H](O)[C@H](CC(C)C)NC(=O)[C@H](Cc1c[nH]cn1)NC(=O)CNC(=O)[C@@H](NC(=O)[C@H](C)NC(=O)[C@H](Cc1c[nH]c2ccccc12)NC(=O)[C@H](CCC(N)=O)NC(=O)[C@@H](Cc1ccccc1)NC(=O)CCCCCNC(=O)[C@H](CCCCNC(=O)CN1CCN(CC(=O)O)CCN(CC(=O)O)CCN(CC(=O)O)CC1)NC(=O)CCCCCNC(=O)CC[C@H](NC(=O)N[C@@H](CCC(=O)O)C(=O)O)C(=O)O)C(C)C)C(N)=O [DUPA-6-Ahx-Lys(^111In-DOTA)-6-Ahx-RM2, metal not drawn] | 0.08 ± 0.06 | 0.03 ± 0.04 | 0.16 ± 0.22 | 2.84 ± 0.64 | 0.14 ± 0.12 | 0.23 ± 0.14 | 0.86 ± 0.7 | 0.07 ± 0.07 | 0.19 ± 0.19 | 0.22 ± 0.13 | 0.12 ± 0.13 | 0.14 ± 0.11 | – |
| – | CC(C)C[C@H](NC(=O)C[C@H](O)[C@H](CC(C)C)NC(=O)[C@H](Cc1c[nH]cn1)NC(=O)CNC(=O)[C@@H](NC(=O)[C@H](C)NC(=O)[C@H](Cc1c[nH]c2ccccc12)NC(=O)[C@H](CCC(N)=O)NC(=O)[C@@H](Cc1ccccc1)NC(=O)CCCCCCCNC(=O)[C@H](CCCCNC(=O)CN1CCN(CC(=O)O)CCN(CC(=O)O)CCN(CC(=O)O)CC1)NC(=O)CCCCCNC(=O)CC[C@H](NC(=O)N[C@@H](CCC(=O)O)C(=O)O)C(=O)O)C(C)C)C(N)=O [DUPA-6-Ahx-Lys(^111In-DOTA)-8-Aoc-RM2, metal not drawn] | 0.14 ± 0.04 | 0.02 | 0.2 ± 0.14 | 1.37 ± 0.31 | 0.49 ± 0.25 | 0.38 ± 0.04 | 0.37 ± 0.03 | 0.1 ± 0.01 | 5.45 ± 0.47 | – | 0.49 ± 0.34 | 1.73 ± 2.49 | tissue uptake at 24 h [2]: 0.01 %ID/g; tissue uptake at 4 h [3]: 0.58 ± 0.1 %ID/g |
| – | CC(C)C[C@H](NC(=O)C[C@H](O)[C@H](CC(C)C)NC(=O)[C@H](Cc1c[nH]cn1)NC(=O)CNC(=O)[C@@H](NC(=O)[C@H](C)NC(=O)[C@H](Cc1c[nH]c2ccccc12)NC(=O)[C@H](CCC(N)=O)NC(=O)[C@@H](Cc1ccccc1)NC(=O)c1ccc(NC(=O)[C@H](CCCCNC(=O)CN2CCN(CC(=O)O)CCN(CC(=O)O)CCN(CC(=O)O)CC2)NC(=O)CCCCCNC(=O)CC[C@H](NC(=O)N[C@@H](CCC(=O)O)C(=O)O)C(=O)O)cc1)C(C)C)C(N)=O [DUPA-6-Ahx-Lys(^111In-DOTA)-AMBA-RM2, metal not drawn] | 0.06 ± 0.04 | 0.02 ± 0.01 | 0.12 ± 0.05 | 1.37 ± 0.31 | 0.09 ± 0.02 | 0.28 ± 0.04 | 1.01 ± 1.15 | 0.08 ± 0.02 | 0.24 ± 0.06 | 0.2 ± 0.04 | 0.15 ± 0.04 | 0.15 ± 0.06 | – |
| 13.9 ± 2.53 | CC(C)C[C@H](NC(=O)C[C@H](O)[C@H](CC(C)C)NC(=O)[C@H](Cc1c[nH]cn1)NC(=O)CNC(=O)[C@@H](NC(=O)[C@H](C)NC(=O)[C@H](Cc1c[nH]c2ccccc12)NC(=O)[C@H](CCC(N)=O)NC(=O)[C@@H](Cc1ccccc1)NC(=O)CCCCCNC(=O)[C@H](CCCCNC(=O)CN1CCN(CC(=O)O)CCN(CC(=O)O)CCN(CC(=O)O)CC1)NC(=O)CCCCCNC(=O)CC[C@H](NC(=O)N[C@@H](CCC(=O)O)C(=O)O)C(=O)O)C(C)C)C(N)=O [[DUPA-6-Ahx-[^natLu-DOTA]-6-Ahx-RM2]] [metal not drawn] | – | – | – | – | – | – | – | – | – | – | – | – | – |
| 16 ± 2.79 | CC(C)C[C@H](NC(=O)C[C@H](O)[C@H](CC(C)C)NC(=O)[C@H](Cc1c[nH]cn1)NC(=O)CNC(=O)[C@@H](NC(=O)[C@H](C)NC(=O)[C@H](Cc1c[nH]c2ccccc12)NC(=O)[C@H](CCC(N)=O)NC(=O)[C@@H](Cc1ccccc1)NC(=O)CCCCCCCNC(=O)[C@H](CCCCNC(=O)CN1CCN(CC(=O)O)CCN(CC(=O)O)CCN(CC(=O)O)CC1)NC(=O)CCCCCNC(=O)CC[C@H](NC(=O)N[C@@H](CCC(=O)O)C(=O)O)C(=O)O)C(C)C)C(N)=O [[DUPA-6-Ahx-[^natLu-DOTA]-8-Aoc-RM2]] [metal not drawn] | – | – | – | – | – | – | – | – | – | – | – | – | – |
| – | DOTA-p-aminomethylaniline-diglycolic acid-DPhe-Gln-Trp-Ala-Val-Gly-His-Leu-NHEt (FQWAVGHL; DOTA-p-aminomethylaniline-diglycolic acid N-term, C-terminal NHEt; (1)..(1) D-phenylalanine; (1)..(1) DOTA-p-aminomethylaniline-diglycolic acid linked to D-Phenylalanine) [SB3] | – | – | – | – | – | – | – | – | – | – | – | – | Metastatic disease detected, fraction of patients [5]: 5/9 |
| 9.3 ± 2.32 | [DUPA-6-Ahx-Lys(M-DOTA)-6-Ahx-RM2] | – | – | – | – | – | – | – | – | – | – | – | – | IC50 [6]: 3.99 ± 1.8 nM |
| – | ^64Cu-CB-TE2A-AR06 | – | – | – | – | – | – | – | – | – | – | – | – | High contrast imaging of prostate tumors, fraction of men [7]: ¾ |
